Columns and labels:
[1] = molecular target: T1, SARS-CoV-2 RBD, wild type (Sino Biological) (SARS-CoV-2, UniProt P0DTC2 319-541); assay: BLI, affinity format: binder on AHC sensor, RBD in solution
T1 construct: domain: RBD

[2] = molecular target: T2, SARS-CoV-2 RBD variant Alpha (N501Y) (Sino Biological) (SARS-CoV-2, UniProt P0DTC2 319-541); assay: as above
T2 construct: domain: RBD

[3] = molecular target: T3, SARS-CoV-2 RBD variant Delta (L452R, T478K) (Sino Biological) (SARS-CoV-2, UniProt P0DTC2 319-541); assay: as above
T3 construct: domain: RBD

[4] = molecular target: T4, SARS-CoV-2 RBD variant Kappa (L452R, E484Q) (Sino Biological) (SARS-CoV-2, UniProt P0DTC2 319-541); assay: as above
T4 construct: domain: RBD

[5] = molecular target: T5, SARS-CoV-2 RBD variant Gamma (K417T, E484K, N501Y) (Sino Biological) (SARS-CoV-2, UniProt P0DTC2 319-541); assay: as above
T5 construct: domain: RBD

[6] = molecular target: T6, SARS-CoV-2 RBD variant Beta (K417N, E484K, N501Y) (Sino Biological) (SARS-CoV-2, UniProt P0DTC2 319-541); assay: as above
T6 construct: domain: RBD

[7] = molecular target: T7, SARS-CoV-2 RBD variant Lambda (L452Q, F490S) (Sino Biological) (SARS-CoV-2, UniProt P0DTC2 319-541); assay: as above
T7 construct: domain: RBD

[8] = molecular target: T1, SARS-CoV-2 RBD, wild type (Sino …); assay: BLI, avidity format: response at highest analyte concentration
[9] = molecular target: T2, SARS-CoV-2 RBD variant Alpha (N501Y) …; assay: as above
[10] = molecular target: T3, SARS-CoV-2 RBD variant Delta (L452R, …); assay: as above
[11] = molecular target: T4, SARS-CoV-2 RBD variant Kappa (L452R, …); assay: as above
[12] = molecular target: T5, SARS-CoV-2 RBD variant Gamma (K417T, …); assay: as above
[13] = molecular target: T6, SARS-CoV-2 RBD variant Beta (K417N, …); assay: as above
[14] = molecular target: T7, SARS-CoV-2 RBD variant Lambda (L452Q, …); assay: as above
[15] = molecular target: T1, SARS-CoV-2 RBD, wild type (Sino …); assay: BLI, affinity format: response at highest analyte concentration
[16] = molecular target: T2, SARS-CoV-2 RBD variant Alpha (N501Y) …; assay: as above
[17] = molecular target: T3, SARS-CoV-2 RBD variant Delta (L452R, …); assay: as above
[18] = molecular target: T4, SARS-CoV-2 RBD variant Kappa (L452R, …); assay: as above
[19] = molecular target: T5, SARS-CoV-2 RBD variant Gamma (K417T, …); assay: as above
[20] = molecular target: T6, SARS-CoV-2 RBD variant Beta (K417N, …); assay: as above
[21] = molecular target: T7, SARS-CoV-2 RBD variant Lambda (L452Q, …); assay: as above
[22] = molecular target: T1, SARS-CoV-2 RBD, wild type (Sino …); assay: BLI, avidity format: biotinylated RBD on SA sensor, binder in solution
[23] = molecular target: T2, SARS-CoV-2 RBD variant Alpha (N501Y) …; assay: as above
[24] = molecular target: T3, SARS-CoV-2 RBD variant Delta (L452R, …); assay: as above
[25] = molecular target: T4, SARS-CoV-2 RBD variant Kappa (L452R, …); assay: as above
[26] = molecular target: T5, SARS-CoV-2 RBD variant Gamma (K417T, …); assay: as above
[27] = molecular target: T6, SARS-CoV-2 RBD variant Beta (K417N, …); assay: as above
[28] = molecular target: T7, SARS-CoV-2 RBD variant Lambda (L452Q, …); assay: as above

B1: Tixagevimab (antibody, V domains shown)
VH: QMQLVQSGPEVKKPGTSVKVSCKASGFTFMSSAVQWVRQARGQRLEWIGWIVIGSGNTNYAQKFQERVTITRDMSTSTAYMELSSLRSEDTAVYYCAAPYCSSISCNDGFDIWGQGTMVTVSS
VL: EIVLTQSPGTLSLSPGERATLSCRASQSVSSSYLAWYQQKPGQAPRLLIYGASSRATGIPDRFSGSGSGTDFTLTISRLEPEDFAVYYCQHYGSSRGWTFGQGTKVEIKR
Kd [1]: 3.63 nM | koff [1]: 0.00406 s⁻¹ | kon [1]: 1.12e+06 M⁻¹ s⁻¹ | Kd [2]: 3.17 nM | koff [2]: 0.0026 s⁻¹ | kon [2]: 821000 M⁻¹ s⁻¹ | Kd [3]: 3.83 nM | koff [3]: 0.0043 s⁻¹ | kon [3]: 1.12e+06 M⁻¹ s⁻¹ | Kd [4]: 5.21 nM | koff [4]: 0.00469 s⁻¹ | kon [4]: 900000 M⁻¹ s⁻¹ | Kd [5]: 5.83 nM | koff [5]: 0.00484 s⁻¹ | kon [5]: 830000 M⁻¹ s⁻¹ | Kd [6]: 3.24 nM | koff [6]: 0.00318 s⁻¹ | kon [6]: 981000 M⁻¹ s⁻¹ | Kd [7]: 4.31 nM | koff [7]: 0.00337 s⁻¹ | kon [7]: 782000 M⁻¹ s⁻¹ | Response [8]: 1.7 nm shift | Response [9]: 1.35 nm shift | Response [10]: 1.3 nm shift | Response [11]: 1.54 nm shift | Response [12]: 1.58 nm shift | Response [13]: 1.14 nm shift | Response [14]: 1.76 nm shift | Response [15]: 0.477 nm shift | Response [16]: 0.552 nm shift | Response [17]: 0.513 nm shift | Response [18]: 0.472 nm shift | Response [19]: 0.474 nm shift | Response [20]: 0.46 nm shift | Response [21]: 0.411 nm shift | Kd [22]: 0.0221 nM | koff [22]: 7.4e-06 s⁻¹ | kon [22]: 335000 M⁻¹ s⁻¹ | Kd [23]: < 1 pM | koff [23]: < 1e-07 s⁻¹ | kon [23]: 447000 M⁻¹ s⁻¹ | Kd [24]: 0.0303 nM | koff [24]: 1.28e-05 s⁻¹ | kon [24]: 422000 M⁻¹ s⁻¹ | Kd [25]: < 1 pM | koff [25]: < 1e-07 s⁻¹ | kon [25]: 416000 M⁻¹ s⁻¹ | Kd [26]: < 1 pM | koff [26]: < 1e-07 s⁻¹ | kon [26]: 376000 M⁻¹ s⁻¹ | Kd [27]: < 1 pM | koff [27]: < 1e-07 s⁻¹ | kon [27]: 440000 M⁻¹ s⁻¹ | Kd [28]: < 1 pM | koff [28]: < 1e-07 s⁻¹ | kon [28]: 362000 M⁻¹ s⁻¹
